{"source": "paper PMC4646180"}
{"molecular_target": "Ub-AMC (ubiquitin with 7-amino-4-methylcoumarin at its C terminus) (UniProt P0CG48)", "units": {"Relative activity of WT, 500 nM Ub-AMC": "%"}}
{"substance": "MHV PLP2+ D1772R (from UniProt P0C6V0 1525-1911) (enzyme)", "Relative activity of WT, 500 nM Ub-AMC": 1.1}
{"substance": "MHV PLP2+ D1807R (from UniProt P0C6V0 1525-1911) (enzyme)", "Relative activity of WT, 500 nM Ub-AMC": 0.5}
{"substance": "MHV PLP2+ F1812A (from UniProt P0C6V0 1525-1911) (enzyme)", "Relative activity of WT, 500 nM Ub-AMC": 3.3}
{"substance": "MHV PLP2+ Y1824A (from UniProt P0C6V0 1525-1911) (enzyme)", "Relative activity of WT, 500 nM Ub-AMC": 3}
{"substance": "MHV PLP2+ Y1824F (from UniProt P0C6V0 1525-1911) (enzyme)", "Relative activity of WT, 500 nM Ub-AMC": 70.3}
